Experimental data reported in article PMC10975490 (Toxins, 2024).

Experiments:
[1] = molecular target: Gloydius brevicauda basic phospholipase A2 (Gloydius brevicauda); assay: inhibition of enzyme activity; PLA2 activity measured fluorometrically with 10-Pyrene-PC as substrate at various concentrations of LRG; apparent inhibition constant (Ki app) by non-linear least-squares analysis of relative PLA2 activity
[2] = molecular target: Protobothrops flavoviridis leucine-rich α2-glycoprotein (LRG) (Protobothrops flavoviridis); assay: SPR; BIAcore X; P. flavoviridis LRG amine-coupled to a CM5 chip; Cyt c or PLA2 as analyte; 25 °C; 50 mM HEPES, 0.05% Tween 20, pH 7.5, NaCl to ionic strength 0.2; 10 μL/min; 1:1 Langmuir model with drifting baseline, global fit; apparent Kd
[3] = molecular target: Laticauda semifasciata leucine-rich α2-glycoprotein (LRG) (Laticauda semifasciata); assay: SDS-PAGE under reducing and non-reducing conditions
[4] = molecular target: Naja kaouthia leucine-rich α2-glycoprotein (LRG) (Naja kaouthia); assay: as above
[5] = molecular target: Protobothrops flavoviridis leucine-rich α2-glycoprotein (LRG) (Protobothrops flavoviridis); assay: as above
[6] = molecular target: the molecule itself; assay: as above
[7] = molecular target: T1, Protobothrops flavoviridis basic phospholipase A2 PL-X (Protobothrops flavoviridis, UniProt P06860 1-122); assay: inhibition of enzyme activity; PLA2 activity measured fluorometrically with 10-Pyrene-PC as substrate at various concentrations of LRG; apparent inhibition constant (Ki app) by non-linear least-squares analysis of relative PLA2 activity; conditions: both partners purified
T1 construct: Group II basic phospholipase A2 PL-X from the venom of Protobothrops flavoviridis; also called P. flavoviridis PL-X
T1 sequence: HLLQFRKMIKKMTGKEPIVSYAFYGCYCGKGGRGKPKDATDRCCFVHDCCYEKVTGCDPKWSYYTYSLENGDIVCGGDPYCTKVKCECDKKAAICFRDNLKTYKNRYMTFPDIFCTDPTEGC

Sequence of Gloydius brevicauda basic phospholipase A2 (Gloydius brevicauda) (O42187 17-138 limits assumed): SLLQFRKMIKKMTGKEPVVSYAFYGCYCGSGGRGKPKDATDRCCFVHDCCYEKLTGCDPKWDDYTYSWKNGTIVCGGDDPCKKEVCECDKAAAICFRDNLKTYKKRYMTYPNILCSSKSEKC

Molecule: Elaphe climacophora leucine-rich α2-glycoprotein (PLIβ) (from UniProt C0STK7 24-332) (natural protein)
- Ki [1]: 11.1 nM

Molecule: Laticauda semifasciata cytochrome c (natural protein)
- Kd [2]: 0.0149 nM

Molecule: Laticauda semifasciata leucine-rich α2-glycoprotein (LRG) (natural protein)
- Ki [1]: 1030 nM
- stoichiometry N [3]: 2

Molecule: Naja kaouthia leucine-rich α2-glycoprotein (LRG) (natural protein)
- Ki [1]: 350 nM
- stoichiometry N [4]: 2

Molecule: Protobothrops flavoviridis leucine-rich α2-glycoprotein (LRG) (natural protein)
- stoichiometry N [5]: 2

B1: Elaphe quadrivirgata PLIβ (natural protein)
chain: VLYCPPDPAPENITEFVCNSPSLHEFPTGFPVRTKLISVEFTQVSSLGVEALQGLPNLQELHLSNNRLKTLLSGLFRNLPELHTLDLSTNLLEDLPPEIFTSTTSLTLLSISENRLAKLRLSWFETLKELRILSLDNNQLKEVPISCFDKLEKLTFLDLSSNRLHRLSPDMFSGLDNLERLSLENNPIRCIAPKSFHGRPKLSIISLKNCSLTNIITGVFQPLNHLVLLDLSDNELTMLDPPVAIPSANLSLDLTGNPWACNCRMDNLLTWVKEHKIDLYSKEEIVCAFPKSFKGEEATSLHRSQICPC
- stoichiometry N [6]: 2

B2: Gloydius brevicauda leucine-rich α2-glycoprotein (PLIβ) (natural protein, UniProt O93233 24-331, looked up)
chain: VLYCPPTPAPENVTEFVCNSPSLHEFPTGFPARAKMISVEFTQVSSLGVEALQGLPNLQELHLSNNRLKTLPSGLFRNLPQLHTLDLSTNHLEDLPPEIFTNASSLILLPLSENQLAELHPSWFQTLGELRILGLDHNQVKEIPISCFDKLKKLTSLDLSFNLLRRLAPEMFSGLDNLEKLILESNPIQCIVGRTFHWHPKLTVLSLKNSSLTNIMGFFQPLEQLELLDLSDNELTTMEPPVYKTSANLSLDLSGNPWACDCRLDNLLTWVNEHNIHLYSKEEIVCASPKHFKGECATSLHKSQICPC
notes: PLIβ (snake LRG) of Gloydius brevicauda (Agkistrodon blomhoffii siniticus), from serum; also called G. brevicauda LRG; G. brevicauda PLIβ
- Ki [7]: 26.1 nM
- stoichiometry N [6]: 2
